Data set [1] deals with T1, TstI restriction-modification protein (His-tagged) (Thermus scotoductus RFL1 (printed as T. scotoductus RFL1)) (UniProt A6H2J1).
T1 sequence: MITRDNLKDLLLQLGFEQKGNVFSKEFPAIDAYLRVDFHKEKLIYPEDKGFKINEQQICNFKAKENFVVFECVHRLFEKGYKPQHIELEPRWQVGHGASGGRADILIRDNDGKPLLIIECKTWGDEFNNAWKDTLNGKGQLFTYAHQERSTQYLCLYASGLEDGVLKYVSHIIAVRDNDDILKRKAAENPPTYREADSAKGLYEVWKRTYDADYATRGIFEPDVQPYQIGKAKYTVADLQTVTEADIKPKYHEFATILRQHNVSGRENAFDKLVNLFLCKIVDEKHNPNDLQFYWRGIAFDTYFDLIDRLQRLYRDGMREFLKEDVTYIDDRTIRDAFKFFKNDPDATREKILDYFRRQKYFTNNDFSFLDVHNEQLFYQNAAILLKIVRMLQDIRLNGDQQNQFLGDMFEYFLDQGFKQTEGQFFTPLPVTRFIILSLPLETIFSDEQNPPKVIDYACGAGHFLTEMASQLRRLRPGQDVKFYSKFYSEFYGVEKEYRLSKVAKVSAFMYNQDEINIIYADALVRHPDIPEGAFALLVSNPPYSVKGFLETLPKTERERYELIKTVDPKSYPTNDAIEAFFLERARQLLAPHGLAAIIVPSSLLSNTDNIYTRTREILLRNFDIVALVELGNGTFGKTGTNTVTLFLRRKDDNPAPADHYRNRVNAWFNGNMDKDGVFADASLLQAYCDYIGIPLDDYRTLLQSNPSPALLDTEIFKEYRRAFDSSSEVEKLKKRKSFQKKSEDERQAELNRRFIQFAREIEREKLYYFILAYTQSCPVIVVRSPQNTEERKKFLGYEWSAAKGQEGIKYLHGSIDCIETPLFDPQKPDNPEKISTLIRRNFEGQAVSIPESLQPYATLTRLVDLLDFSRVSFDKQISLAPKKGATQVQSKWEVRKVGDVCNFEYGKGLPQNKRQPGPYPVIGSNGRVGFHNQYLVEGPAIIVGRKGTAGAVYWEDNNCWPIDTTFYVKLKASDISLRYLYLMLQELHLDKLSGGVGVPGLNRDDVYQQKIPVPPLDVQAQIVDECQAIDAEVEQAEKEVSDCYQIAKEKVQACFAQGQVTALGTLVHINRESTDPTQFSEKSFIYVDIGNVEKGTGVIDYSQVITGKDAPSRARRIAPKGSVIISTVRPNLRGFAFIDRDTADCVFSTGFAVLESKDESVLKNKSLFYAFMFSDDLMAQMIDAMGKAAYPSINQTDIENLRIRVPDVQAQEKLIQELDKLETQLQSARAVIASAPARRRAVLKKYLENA
Put plainly: cleavage kinetics: kobs vs enzyme concentration, hyperbolic fit (no direct binding read-out). As to conditions: EMSA conditions not given (data not shown); cleavage in buffer R (composition not in material), 37 C.

Data set [2] deals with TstI RM protein (His-tagged form) (Thermus scotoductus RFL1). Put plainly: AUC; sedimentation equilibrium; TstI 0.1-0.3 mg/ml in 20 mM Tris-HCl pH 8.4, 100 mM KCl, 10 mM MgCl2, 20°C; 5000, 6000 and 7500 rpm; global fit to a single ideal species.
Data set [3] addresses T2, TstI restriction-modification protein (His-tagged) (Thermus scotoductus RFL1 (printed as T. …, UniProt A6H2J1 1-1251)).
T2 sequence: T1 sequence
Nature of the data set: EMSA; data not shown; EMSA conditions not given (data not shown); cleavage in buffer R (composition not in material), 37 C. The settings on record: protein: recombinant; tags: N-terminal His tag (pET15b, 20 extra aa); chain copies: 4.

Regarding pTST1, the K half in data set [1] was found to be 19 nM.
For orientation: stoichiometry N means the number of molecules, sites or subunits per partner or assembly. In the case of “TstI RM protein (His-tagged form) (enzyme)”, in data set [2], the stoichiometry N was 4.

B1: 50NS (dsDNA)
DNA 1: CTGTCTGAGATACACTCGTCTCGAACAAACCATCCAGTCTCTGACTATGT
DNA 2: ACATAGTCAGAGACTGGATGGTTTGTTCGAGACGAGTGTATCTCAGACAG
Take B1: in data set [3], the binding result is reported as “binds”.

The record behind these values is PMC4027205, “TstI, a Type II restriction–modification protein with DNA recognition, cleavage and methylation functions in a single polypeptide”.
